# Measurements from patent publication US20110237779A1.
# B1: MHM24 direct hypervariable region graft on the acceptor human consensus framework (Fab displayed on phage) (Fab, V domains shown)
# VH: EVQLVESGGGLVQPGGSLRLSCAASGYSFTGHWMNWVRQAPGKGLEWVGMIHPSDSETRLNQKFKDRFTISADTSKNTAYLQMNSLRAEDTAVYYCARGIYFYGTTYFDYWGQGTLVTVSS
# VL: DIQMTQSPSSLSASVGDRVTITCRASKTISKYLAWYQQKPGKAPKLLIYSGSTLQSGVPSRFSGSGSGTDFTLTISSLQPEDFATYYCQQHNEYPLTFGQGTKVEIK
# B2: MHM24 library clone, CDR-L2 SGSTLES (Fab, V domains shown)
# VH: EVQLVESGGGLVQPGGSLRLSCAASGYSFTGHWMNWVRQAPGKGLEWVGMIHPSDSETRLNQKFKDRFTISADTSKNTAYLQMNSLRAEDTAVYYCARGIYFYGTTYFDYWGQGTLVTVSS
# VL: DIQMTQSPSSLSASVGDRVTITCRASKTISKYLAWYQQKPGKAPKLLIYSGSTLESGVPSRFSGSGSGTDFTLTISSLQPEDFATYYCQQHNEYPLTFGQGTKVEIK
# B3: MHM24 library clone, CDR-L2 SGSTLES, VH D101E (Fab, V domains shown)
# VH: EVQLVESGGGLVQPGGSLRLSCAASGYSFTGHWMNWVRQAPGKGLEWVGMIHPSDSETRLNQKFKDRFTISADTSKNTAYLQMNSLRAEDTAVYYCARGIYFYGTTYFEYWGQGTLVTVSS
# VL: DIQMTQSPSSLSASVGDRVTITCRASKTISKYLAWYQQKPGKAPKLLIYSGSTLESGVPSRFSGSGSGTDFTLTISSLQPEDFATYYCQQHNEYPLTFGQGTKVEIK
# B4: MHM24 library clone, CDR-L2 TGSTLES, VL S26T (Fab, V domains shown)
# VH: EVQLVESGGGLVQPGGSLRLSCAASGYSFTGHWMNWVRQAPGKGLEWVGMIHPSDSETRLNQKFKDRFTISADTSKNTAYLQMNSLRAEDTAVYYCARGIYFYGTTYFDYWGQGTLVTVSS
# VL: DIQMTQSPSSLSASVGDRVTITCRATKTISKYLAWYQQKPGKAPKLLIYTGSTLESGVPSRFSGSGSGTDFTLTISSLQPEDFATYYCQQHNEYPLTFGQGTKVEIK
# B5: MHM24 library clone, CDR-L2 SGSTLES, VH S55I (Fab, V domains shown)
# VH: EVQLVESGGGLVQPGGSLRLSCAASGYSFTGHWMNWVRQAPGKGLEWVGMIHPSDIETRLNQKFKDRFTISADTSKNTAYLQMNSLRAEDTAVYYCARGIYFYGTTYFDYWGQGTLVTVSS
# VL: DIQMTQSPSSLSASVGDRVTITCRASKTISKYLAWYQQKPGKAPKLLIYSGSTLESGVPSRFSGSGSGTDFTLTISSLQPEDFATYYCQQHNEYPLTFGQGTKVEIK
# B6: MHM24 library clone, CDR-L2 SGGTLHR (Fab, V domains shown)
# VH: EVQLVESGGGLVQPGGSLRLSCAASGYSFTGHWMNWVRQAPGKGLEWVGMIHPSDSETRLNQKFKDRFTISADTSKNTAYLQMNSLRAEDTAVYYCARGIYFYGTTYFDYWGQGTLVTVSS
# VL: DIQMTQSPSSLSASVGDRVTITCRASKTISKYLAWYQQKPGKAPKLLIYSGGTLHRGVPSRFSGSGSGTDFTLTISSLQPEDFATYYCQQHNEYPLTFGQGTKVEIK
# B7: MHM24 library clone, CDR-L2 SGYSLHR, VL K27E, L96V (Fab, V domains shown)
# VH: EVQLVESGGGLVQPGGSLRLSCAASGYSFTGHWMNWVRQAPGKGLEWVGMIHPSDSETRLNQKFKDRFTISADTSKNTAYLQMNSLRAEDTAVYYCARGIYFYGTTYFDYWGQGTLVTVSS
# VL: DIQMTQSPSSLSASVGDRVTITCRASETISKYLAWYQQKPGKAPKLLIYSGYSLHRGVPSRFSGSGSGTDFTLTISSLQPEDFATYYCQQHNEYPVTFGQGTKVEIK
# B8: MHM24 library clone, CDR-L2 SGRAMQR (Fab, V domains shown)
# VH: EVQLVESGGGLVQPGGSLRLSCAASGYSFTGHWMNWVRQAPGKGLEWVGMIHPSDSETRLNQKFKDRFTISADTSKNTAYLQMNSLRAEDTAVYYCARGIYFYGTTYFDYWGQGTLVTVSS
# VL: DIQMTQSPSSLSASVGDRVTITCRASKTISKYLAWYQQKPGKAPKLLIYSGRAMQRGVPSRFSGSGSGTDFTLTISSLQPEDFATYYCQQHNEYPLTFGQGTKVEIK
# B9: MHM24 library clone, CDR-L2 SGRALQS (Fab, V domains shown)
# VH: EVQLVESGGGLVQPGGSLRLSCAASGYSFTGHWMNWVRQAPGKGLEWVGMIHPSDSETRLNQKFKDRFTISADTSKNTAYLQMNSLRAEDTAVYYCARGIYFYGTTYFDYWGQGTLVTVSS
# VL: DIQMTQSPSSLSASVGDRVTITCRASKTISKYLAWYQQKPGKAPKLLIYSGRALQSGVPSRFSGSGSGTDFTLTISSLQPEDFATYYCQQHNEYPLTFGQGTKVEIK
# B10: MHM24 library clone, CDR-L2 SGRSLQS, VH S28R (Fab, V domains shown)
# VH: EVQLVESGGGLVQPGGSLRLSCAASGYRFTGHWMNWVRQAPGKGLEWVGMIHPSDSETRLNQKFKDRFTISADTSKNTAYLQMNSLRAEDTAVYYCARGIYFYGTTYFDYWGQGTLVTVSS
# VL: DIQMTQSPSSLSASVGDRVTITCRASKTISKYLAWYQQKPGKAPKLLIYSGRSLQSGVPSRFSGSGSGTDFTLTISSLQPEDFATYYCQQHNEYPLTFGQGTKVEIK
# B11: MHM24 library clone, CDR-L2 NARSLQS (Fab, V domains shown)
# VH: EVQLVESGGGLVQPGGSLRLSCAASGYSFTGHWMNWVRQAPGKGLEWVGMIHPSDSETRLNQKFKDRFTISADTSKNTAYLQMNSLRAEDTAVYYCARGIYFYGTTYFDYWGQGTLVTVSS
# VL: DIQMTQSPSSLSASVGDRVTITCRASKTISKYLAWYQQKPGKAPKLLIYNARSLQSGVPSRFSGSGSGTDFTLTISSLQPEDFATYYCQQHNEYPLTFGQGTKVEIK
# B12: MHM24 library clone, CDR-L2 SGSALQS (Fab, V domains shown)
# VH: EVQLVESGGGLVQPGGSLRLSCAASGYSFTGHWMNWVRQAPGKGLEWVGMIHPSDSETRLNQKFKDRFTISADTSKNTAYLQMNSLRAEDTAVYYCARGIYFYGTTYFDYWGQGTLVTVSS
# VL: DIQMTQSPSSLSASVGDRVTITCRASKTISKYLAWYQQKPGKAPKLLIYSGSALQSGVPSRFSGSGSGTDFTLTISSLQPEDFATYYCQQHNEYPLTFGQGTKVEIK
# B13: MHM24 library clone, CDR-L2 SGSIFQY, VH Y100dT (Fab, part only; not given: CH1, light constant and phage P3, part only)
# light chain: DIQMTQSPSSLSASVGDRVTITCRASKTISKYLAWYQQKPGKAPKLLIYSGSIFQYGVPSRFSGSGSGTDFTLTISSLQPEDFATYYCQQHNEYPLTFGQGTKVEIKR
# heavy chain (VH-CH1 fused to phage P3), part: EVQLVESGGGLVQPGGSLRLSCAASGYSFTGHWMNWVRQAPGKGLEWVGMIHPSDSETRLNQKFKDRFTISADTSKNTAYLQMNSLRAEDTAVYYCARGIYFYGTTYFDYWGQGTLVTVSS
# B14: MHM24 library clone, CDR-L2 SGRTLWP (Fab, V domains shown)
# VH: EVQLVESGGGLVQPGGSLRLSCAASGYSFTGHWMNWVRQAPGKGLEWVGMIHPSDSETRLNQKFKDRFTISADTSKNTAYLQMNSLRAEDTAVYYCARGIYFYGTTYFDYWGQGTLVTVSS
# VL: DIQMTQSPSSLSASVGDRVTITCRASKTISKYLAWYQQKPGKAPKLLIYSGRTLWPGVPSRFSGSGSGTDFTLTISSLQPEDFATYYCQQHNEYPLTFGQGTKVEIK
# B15: MHM24 library clone, CDR-L2 SGRSLQR, VH L45P (Fab, V domains shown)
# VH: EVQLVESGGGLVQPGGSLRLSCAASGYSFTGHWMNWVRQAPGKGPEWVGMIHPSDSETRLNQKFKDRFTISADTSKNTAYLQMNSLRAEDTAVYYCARGIYFYGTTYFDYWGQGTLVTVSS
# VL: DIQMTQSPSSLSASVGDRVTITCRASKTISKYLAWYQQKPGKAPKLLIYSGRSLQRGVPSRFSGSGSGTDFTLTISSLQPEDFATYYCQQHNEYPLTFGQGTKVEIK
# Target: human LFA-1 (human) (UniProt P20701)
# Assay: phage ELISA, Fab on phage, competition with antigen in solution
row,Binder,IC50
1,B1,6 nM

# Target: human LFA-1 (human) (UniProt P20701)
# Assay: phage ELISA, Fab on phage, competition with antigen in solution; IC50 used as affinity estimate
row,Binder,IC50
1,B1,4 nM

# Target: human LFA-1 (human) (UniProt P20701)
# Assay: phage ELISA, solution competition: Fab-phage incubated with serially diluted LFA-1, unbound phage captured on LFA-1-coated wells; IC50 used as affinity estimate
row,Binder,IC50
1,B2,9 nM
2,B3,8 nM
3,B4,4 nM
4,B5,4 nM
5,B6,6 nM
6,B7,41 nM
7,B8,11 nM
8,B9,9 nM
9,B10,17 nM
10,B11,32 nM
11,B12,8 nM
12,B1,6 nM
13,B13,11 nM
14,B14,17 nM
15,B15,27 nM
